Laboratory results from patent publication US10351618B2, “UTI fusion proteins” (Takeda Pharmaceutical Company Limited, priority 2014, dated 2019).
Blank lines part the entries; values can stand above or below the molecule they belong to.

Key:
[1] = target: T1, papain (Carica papaya, UniProt P00784); test: Protease inhibition at Reaction Biology Corporation: papain; assay type: biochemical; conditions: FIG. 7
T1 sequence (P00784 134-345): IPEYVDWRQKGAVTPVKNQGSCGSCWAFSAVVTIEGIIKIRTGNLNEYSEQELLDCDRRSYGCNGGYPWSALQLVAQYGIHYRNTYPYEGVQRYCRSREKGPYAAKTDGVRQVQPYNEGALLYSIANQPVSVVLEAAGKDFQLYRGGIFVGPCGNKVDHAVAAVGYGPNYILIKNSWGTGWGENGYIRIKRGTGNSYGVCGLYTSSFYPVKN
Procedure: (§1) Measurement of the inhibition of other proteases by UTI-Fc1 was also measured at Reaction Biology Corporation (Malvern, Pa.). […] FIG. 7 lists the inhibitory constants of UTI-Fc1 for a variety of proteases.

[2] = Thermal stability by differential scanning calorimetry; assay type: physicochemical
Procedure: Assays were performed to measure the thermal and real-time stability. […] Thermal stability was measured by differential scanning calorimetry on a Microcal VP-DSC calorimeter. Samples were prepared at 1 mg/ml and buffered in 0.25 mM Tris pH7.4, 0.13M NaCl and 0.0027M KCl. Samples were heated from 25° C. to 110° C. at a rate of 200° C. per hour. UTI-Fc1 was compared to Application Publication Number CN 103044554 A, SEQ ID's 2 and 6, which comprise an IgG2 or IgG1 Fc domain respectively.

[3] = target: plasmin (Homo sapiens, UniProt P00747); test: Protease inhibition at Reaction Biology Corporation: plasmin; assay type: biochemical; conditions: FIG. 7
Chain of plasmin (P00747 581-810 limits assumed, species assumed): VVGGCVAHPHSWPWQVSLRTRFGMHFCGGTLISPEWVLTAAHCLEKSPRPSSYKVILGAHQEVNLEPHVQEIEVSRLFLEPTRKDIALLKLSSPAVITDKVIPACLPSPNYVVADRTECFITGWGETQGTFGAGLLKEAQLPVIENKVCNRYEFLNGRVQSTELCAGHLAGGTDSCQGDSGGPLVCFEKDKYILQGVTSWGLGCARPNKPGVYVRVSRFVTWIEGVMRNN
Chain of plasmin (P00747 97-580 partner limits assumed, species assumed): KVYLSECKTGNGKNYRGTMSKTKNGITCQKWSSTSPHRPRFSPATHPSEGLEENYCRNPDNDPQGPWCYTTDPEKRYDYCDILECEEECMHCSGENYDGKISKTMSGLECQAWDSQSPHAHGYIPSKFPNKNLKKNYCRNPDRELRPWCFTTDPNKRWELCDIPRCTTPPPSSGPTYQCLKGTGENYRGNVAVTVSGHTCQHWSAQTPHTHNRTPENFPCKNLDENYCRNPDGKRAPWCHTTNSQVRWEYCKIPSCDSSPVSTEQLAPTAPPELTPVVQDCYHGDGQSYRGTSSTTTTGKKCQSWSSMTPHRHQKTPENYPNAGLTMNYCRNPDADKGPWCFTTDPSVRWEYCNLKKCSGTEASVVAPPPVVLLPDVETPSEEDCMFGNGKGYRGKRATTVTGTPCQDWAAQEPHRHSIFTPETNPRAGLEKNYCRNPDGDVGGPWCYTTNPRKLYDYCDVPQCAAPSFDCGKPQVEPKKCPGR
Procedure: as §1

[4] = test system: C5a; test: LPS induced C5a in C3H mice (complement inhibition in vivo); parameters: species or system C3h/HeJ mice; conditions: 4 hours post LPS dose, p<0.05, FIG. 10
Procedure: UTI-Fc1 (SEQ ID NO:1) affects on the complement system were measured in vivo. Female, C3h/HeJ mice were purchased from Jackson Laboratories. Animals are dosed according to the experimental design Table 10. Animals were injected i.p. (100 ul/mouse) 15 minutes post dose with LPS at time zero. Animals were euthanized at 2 and 4 hours post LPS injection by CO2 overdose and blood was collected by cardiac puncture. Blood was transferred to serum separator microtubes and allowed to clot at room temperature for 30 minutes. Subsequently, microtubes were centrifuged at 12,000 rpm for 5 minutes and serum was removed and aliquoted to a 96 well plate. Rosmarinic acid was used as a positive control and used as 3 mg/ml in saline. The 96 well plate was frozen at −20° C. Serum samples were analyzed for C5a content by duoset. Statistical significance was determined using Prism graphing software and effects were considering statistically significant if p<0.05.

[5] = target: T2, caspase-1 (Homo sapiens, UniProt P29466); test: Protease inhibition at Reaction Biology Corporation: caspase-1; assay type: biochemical; conditions: FIG. 7
T2 sequence (P29466 120-404): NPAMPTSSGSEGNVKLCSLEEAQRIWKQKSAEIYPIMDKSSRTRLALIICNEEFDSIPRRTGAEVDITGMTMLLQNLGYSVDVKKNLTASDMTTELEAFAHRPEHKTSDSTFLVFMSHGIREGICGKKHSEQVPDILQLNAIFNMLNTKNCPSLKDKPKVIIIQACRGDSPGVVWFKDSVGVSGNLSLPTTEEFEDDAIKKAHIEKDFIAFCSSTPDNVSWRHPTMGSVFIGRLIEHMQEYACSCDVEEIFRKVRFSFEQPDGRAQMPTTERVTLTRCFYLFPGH
Procedure: as §1

[6] = Real-time stability (SEC, A280, PAGE) in TBS pH7.4; assay type: physicochemical
Procedure: Real-time stability measurements were performed by incubating SEQ ID NO:1 (UTI-Fc1) or CN 103044554 A, SEQ IDS 2 or 6 at 2-8° C., and 40° C. for 0, 2 and 4 weeks in TBS, pH7.4 buffer. The formation of higher and lower molecular weight species was determined by size exclusion chromatography (SEC) and visualized with polyacrilamide gel electrophoresis (PAGE). The concentration of each UTI-Fc was also monitored by determination of the absorbance of the solution at 280 nm (A280), using extinction coefficients determine by the protein composition. The UTI-Fc molecules produce two, partially overlapping peaks, when analyzed by SEC. The percentage peak area in each UTI-Fc sample measured by SEC is reported in Table 9 at time=0 weeks, 2 weeks, and 4 weeks. Also shown is the percentage change in concentration measured by A280 (% A (mg/ml)) at time=2 weeks and 4 weeks. The initial TO concentration of each sample was UTI-Fc1=33.5 mg/mL, CN 103044554 A SEQ ID 2=8.5 mg/mL, and CN 103044554 A SEQ ID 6=5.6 mg/mL. A variability of 3% is typical for SEC and 15% for individual UV measurements.

[7] = target: cathepsin C (Homo sapiens, UniProt P53634); test: Protease inhibition at Reaction Biology Corporation: cathepsin C; assay type: biochemical; conditions: FIG. 7
Chain of cathepsin C (P53634 25-463, species assumed): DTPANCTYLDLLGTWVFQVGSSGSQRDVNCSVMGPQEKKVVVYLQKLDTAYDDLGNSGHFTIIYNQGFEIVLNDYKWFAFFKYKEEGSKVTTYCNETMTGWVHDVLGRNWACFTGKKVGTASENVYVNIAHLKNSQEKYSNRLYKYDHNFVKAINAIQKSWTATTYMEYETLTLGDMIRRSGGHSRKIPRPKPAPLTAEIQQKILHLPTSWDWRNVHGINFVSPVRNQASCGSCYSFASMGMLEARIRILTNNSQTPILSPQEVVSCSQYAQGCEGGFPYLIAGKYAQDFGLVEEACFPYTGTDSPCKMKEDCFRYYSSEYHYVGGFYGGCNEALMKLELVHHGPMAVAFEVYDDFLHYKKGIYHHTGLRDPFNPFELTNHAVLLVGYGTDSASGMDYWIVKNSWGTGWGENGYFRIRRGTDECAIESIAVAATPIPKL
Procedure: as §1

[8] = test system: chymotrypsin; test: Protease inhibition at Reaction Biology Corporation: chymotrypsin; assay type: biochemical; conditions: FIG. 6, FIG. 7
Procedure: as §1

[9] = target: plasma kallikrien (Homo sapiens, UniProt P03952); conditions: full-length UTI (Morishita et al. 1994); cited from earlier work
Chain of plasma kallikrien (P03952 20-638): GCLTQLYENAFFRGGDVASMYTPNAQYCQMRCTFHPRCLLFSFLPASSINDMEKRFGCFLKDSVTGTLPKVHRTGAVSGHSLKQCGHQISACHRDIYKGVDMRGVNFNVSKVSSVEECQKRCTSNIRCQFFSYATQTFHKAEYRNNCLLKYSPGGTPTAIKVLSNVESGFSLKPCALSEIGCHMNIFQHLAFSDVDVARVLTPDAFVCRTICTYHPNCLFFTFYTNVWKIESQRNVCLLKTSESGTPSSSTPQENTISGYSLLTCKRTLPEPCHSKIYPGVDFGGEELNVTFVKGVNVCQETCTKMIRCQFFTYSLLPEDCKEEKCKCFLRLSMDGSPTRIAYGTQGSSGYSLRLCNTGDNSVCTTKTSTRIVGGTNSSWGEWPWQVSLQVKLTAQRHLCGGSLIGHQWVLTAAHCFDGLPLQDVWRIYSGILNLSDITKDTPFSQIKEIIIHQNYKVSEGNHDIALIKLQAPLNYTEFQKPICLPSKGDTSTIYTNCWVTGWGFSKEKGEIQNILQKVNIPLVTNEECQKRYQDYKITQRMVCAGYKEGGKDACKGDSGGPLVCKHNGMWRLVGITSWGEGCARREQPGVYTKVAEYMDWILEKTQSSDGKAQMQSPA

[10] = target: T3, Human pancreatic trypsin (Homo sapiens, UniProt P07477); test: In vitro enzymatic assay for trypsin inhibition; assay type: biochemical; conditions: human pancreatic trypsin 1.5 nM, 15 min pre-incubation, FIG. 5
T3 construct: purchased Athens Research & Technology, Inc
Procedure: Solutions of UTI-Fc1 at various concentrations 200 nM final concentration) are prepared in 50 mM HEPES, 150 mM NaCl, 20 mM CaC12 and 0.01% Brij L23, pH 7.4. Activity assays were performed in Greiner 384-well small volume plates. All steps were conducted at ambient temperature.
Human pancreatic trypsin (1.5 nM final concentration) (Athens Research & Technology, Inc) was added to the dilutions then pre-incubated with the test UTI-Fc for 15 minutes. Next, the reaction was initiated with 100 μM (final) of substrate N[…]-Benzoyl-L-arginine-7-amido-4-methylcoumarin hydrochloride SIGMA B7260-25 MG. The reaction mixture total volume was 20 µl. Trypsin activity was determined via fluorescence. For example, the fluorescence intensity was determined in kinetic mode over a window of 30 to 60 minutes on a BMG PHERAstar FS or PHERAstar plus using an excitation wavelength of 370 nm and an emission wavelength of 470 nm. Trypsin activity was linearly proportional to the change in fluorescence observed (final−initial). […]
Where: Fi was the observed fluorescence at a given concentration of test UTI-Fc.
Fp was the observed fluorescence of a positive control i.e., the average value of 2 to 6 assays in the absence of Trypsin.
Fn was the observed fluorescence of a negative control i.e., the average value of 2 to 6 assays of Trypsin in the presence of vehicle alone. […]

[11] = target: Factor Xa (Homo sapiens, UniProt P00742); conditions: full-length UTI (Morishita et al. 1994); cited from earlier work
Chain of Factor Xa (P00742 235-488 limits assumed): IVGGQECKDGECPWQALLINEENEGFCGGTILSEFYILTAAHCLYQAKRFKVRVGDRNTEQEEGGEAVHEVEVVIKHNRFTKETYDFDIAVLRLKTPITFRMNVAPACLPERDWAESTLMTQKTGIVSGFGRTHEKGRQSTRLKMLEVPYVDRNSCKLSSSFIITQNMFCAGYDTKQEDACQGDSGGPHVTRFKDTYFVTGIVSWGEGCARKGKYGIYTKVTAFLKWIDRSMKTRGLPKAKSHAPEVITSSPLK
Chain of Factor Xa (P00742 41-179 partner limits assumed): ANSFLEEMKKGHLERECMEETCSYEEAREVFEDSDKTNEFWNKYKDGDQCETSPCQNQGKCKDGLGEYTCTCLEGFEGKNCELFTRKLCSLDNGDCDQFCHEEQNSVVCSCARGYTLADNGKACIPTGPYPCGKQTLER

[12] = rodents and humans (Fries et al 2000); cited from earlier work
[13] = test system: trypsin-induced IL-6 production in BEAS2B cells; test: Inhibition of trypsin-induced IL-6 release in BEAS2B cells; assay type: cell-based, human; conditions: 100 nM trypsin, 8 hours, FIG. 8
Procedure: UTI-Fc1 inhibition of cytokine release was measure in a cell-based assay. BEAS2B cells were seeded at the density of 20,000 cells/well in 96 well plate and cultured using complete BEGM Bullet Kit (Lonza) in CO2 incubator. After 24 hours, the culture media were replaced with plain DMEM for starvation and cells were cultured overnight. Then cells were incubated with fresh plain DMEM containing 100 nM trypsin with various concentrations of human urine UTI or recombinant UTI-Fc1 proteins. After 8 hours, culture supernatants were collected and IL-6 protein levels were assessed using human IL-6 DuoSet (R&D Systems).

[14] = 1 mg/ml, Tris pH7.4, 25° C. to 110° C. at 200° C. per hour

Molecule: UTI-Fc1: UTI-Fc fusion protein, human UTI domain linked to wild type IgG1 Fc, SEQ ID NO: 1
inhibition of papain [1]: weak inhibition
thermal stability compared to the UTI fusion proteins of CN 103044554A [2]: greater thermal stability
DSC Tm1 [2, 14]: 70.86 °C
DSC Tm2 [2, 14]: 85.79 °C
inhibition of plasmin [3]: moderately
serum C5a ([4]; 20 mg/kg iv): significantly reduced
serum C5a ([4]; 50 mg/kg iv): significantly reduced
serum C5a ([4]; 100 mg/kg iv): significantly reduced
inhibition of caspase-1 [5]: weak inhibition
SEC percentage peak area Peak1 ([6]; 0 weeks): 35.7%
SEC percentage peak area Peak2 ([6]; 0 weeks): 64.3%
% Δ (mg/ml), percentage change in concentration by A280 ([6]; 2 weeks at 2-8° C.): 9.2%
SEC percentage peak area Peak1 ([6]; 2 weeks at 2-8° C.): 36.2%
SEC percentage peak area Peak2 ([6]; 2 weeks at 2-8° C.): 63.8%
% Δ (mg/ml), percentage change in concentration by A280 ([6]; 2 weeks at 40° C.): 0.2%
SEC percentage peak area Peak1 ([6]; 2 weeks at 40° C.): 37.1%
SEC percentage peak area Peak2 ([6]; 2 weeks at 40° C.): 62.9%
% Δ (mg/ml), percentage change in concentration by A280 ([6]; 4 weeks at 2-8° C.): 1.2%
SEC percentage peak area Peak1 ([6]; 4 weeks at 2-8° C.): 36.1%
SEC percentage peak area Peak2 ([6]; 4 weeks at 2-8° C.): 63.9%
% Δ (mg/ml), percentage change in concentration by A280 ([6]; 4 weeks at 40° C.): 11.9%
SEC percentage peak area Peak1 ([6]; 4 weeks at 40° C.): 36.8%
SEC percentage peak area Peak2 ([6]; 4 weeks at 40° C.): 63.2%
inhibition of cathepsin C [7]: weak inhibition
inhibition of chymotrypsin [8]: moderately

IC50 [10]: ~3 nM
B1: UTI: Urinary Trypsin Inhibitor, protease inhibitor of about 40 kD present in human urine and blood (protein)
chain: AVLPQEEEGSGGGQLVTEVTKKEDSCQLGYSAGPCMGMTSRYFYNGTSMACETFQYGGCMGNGNNFVTEKECLQTCRTVAACNLPIVRGPCRAFIQLWAFDAVKGKCVLFPYGGCQGNGNKFYSEKECREYCGVPGDGDEELLRFSN
inhibition of plasma kallikrien [9]: does not show inhibition
inhibition of Factor Xa [11]: does not show inhibition
half-life [12]: 4 to 30 min
IC50 of trypsin-induced IL-6 production [13]: 0.40 µg/mL
